From the DeepSol protein solubility set

test: soluble on expression in E. coli; label from the status in PepcDB or PDB records

Soluble on expression in E. coli, soluble:
MGDGAVKQGFLYLQQQQTFGKKWRRFGASLYGGSDCALARLELQEGPEKPRRCEAARKVIRLSDCLRVAEAGGEASSPRDTSAFFLETKERLYLLAAPAAERGDWVQAICLLAF
MGDGKPHTAQQTIPYLQMYPDGICRVTEKKYSKSLVFEDINYQLAQADDKTAIFENWCDFLNYFDASVSVQLSFINQGARQEKAQAAIEIPAQDDAFNSIRKEYADMLKNQLEKGNNGLEKCKYITFSIEADNLAAAKARLSRIETDVLNNFKVLGVTARPMNGQERLNVLHGIFHPAGEPFRFSWDWLVPSGLTTKDFIAPSSFHFGDGRTFRMGKKLGAVSFLEILAPELNDRMLSDILDLENGIIVNLHIRSIDQSEAIKTIKRKITDLDKMKIEEQKKAVRSGYDMDIIPSDLATFGSEAKNLLQDLQSRNERMFLLTFLVANMADTKRKLENDIFATAGFAQKNNCALTRLDYLQEAGFMSSIPLGENLIPIQRGLTTSSTAIFIPFITQELFQRGAALYYGLNALSNNMILCDRKQLKNPNGLILGTPGSGKSFAAKREITNIFLITDDDIIICDPEAEYYPLVERLHGQVVHISPTSRHYVNPMDINLNYSEDDNPLALKSDFILSLCELVIGGKEGLQPVEKTVIDRAVRNVYRPFLADPDPAKMPILGDLYNELLKQPEPEAARIAAALELYVSGSLNVFNHRTNVELSNRLVCFDIKQLGKQLKKLGMLIVQDQVWNRVTLNRAEKKATRYYMDEFHLLLKEEQTAAYSVEIWKRFRKWGGIPTAITQNVKDLLSSREVENIFENSDFVLMLNQAQGDRAILAKQLNISPQQMKYVTHTEAGEGLIFYGNVVLPFIDRFPTNTELYRLLTTKPEEVSKPLEHHHHHH
MGDIMLIILTGLPGVGKSTFSKNLAKILSKNNIDVIVLGSDLIRESFPVWKEKYEEFIKKSTYRLIDSALKNYWVIVDDTNYYNSMRRDLINIAKKYNKNYAIIYLKASLDVLIRRNIERGEKIPNEVIKKMYEKFDEPGKKYKWDEPFLIIDTTKDIDFNEIAKKLIEKSKEIPKFYVLEENKNKNNNISDKIDKETRKIVSEYIKSKKLDKDKIKEVVELRKEFLKKIKKMEEVDADRVLKEFKDLLNSYLEHHHHHH
MGDNLTDLPGVGPSTAEKLVEAGYIDFMKIATATVGELTDIEGISEKAAAKMIMGARDLCDLGFKSGIDLLKQRSTVWKLSTSSSELDSVLGGGLESQSVTEFAGVFGSGKTQIMHQSCVNLQNPEFLFYDEEAVSKGEVAQPKAVYIDTDGTFRPERIMQMAEHAGIDGQTVLDNTFVARAYNSDMQMLFAEKIEDLIQEGNNIKLVVIDSLTSTFRNEYTGRGKLAERQQKLGRHMATLNKLADLFNCVVLVTNQVSAKPDAFFGMAEQAIGGHIVGHAATFRFFVRKGKGDKRVAKLYDSPHLPDAEAIFRITEKGIQD
MGEIESYCNKELGPLPTKAPTLSKNVLDLFSLKGKVASVTGSSGGIGWAVAEAYAQAGADVAIWYNSHPADEKAEHLQKTYGVHSKAYKCNISDPKSVEETISQQEKDFGTIDVFVANAGVTWTQGPEIDVDNYDSWNKIISVDLNGVYYCSHNIGKIFKKNGKGSLIITSSISGKIVNIPQLQAPYNTAKAACTHLAKSLAIEWAPFARVNTISPGYIDTDITDFASKDMKAKWWQLTPLGREGLTQELVGGYLYLASNASTFTTGSDVVIDGGYTCP
MGFNVKTPLLATDVIIRLWDGENFKGIVLIERKYPPVGLALPGGFVEVGERVEEAAAREMREETGLEVRLHKLMGVYSDPERDPRAHVVSVVWIGDAQGEPKAGSDAKKVKVYRLEEIPLDKLVFDHKKIILDFLKGNY
MGGLLFSSLQHCQQGFVISNELRQQQSELTSTWDLMLQTRINLSRSAARMMMDASNQQSSAKTDLLQNAKTTLAQAAAHYANFKNMTPLPAMAEASANVDEKYQRYQAALAELIQFLDNGNMDAYFAQPTQGMQNALGEALGNYARVSENLYRQTFDQSAHDYR
MGHHHHHHGGHMSLLRFLEVVSEHIKNLRNHIDLETVGEMIKLIDSARSIFVIGAGRSGYIAKAFAMRLMHLGYTVYVVGETVTPRITDQDVLVGISGSGETTSVVNISKKAKDIGSKLVAVTGKRDSSLAKMADVVMVVKGKMKQERDEILSQLAPLGTMFELTAMIFLDALVAEIMMQKHLTEKDLEARHAVLEEGGS
MGHHHHHHGGHMSLSPVLTQHVSQPITLDEQTQKMKRHLLQDIRRSAYVYRVDCGGCNACEIEIFAAITPVFDAERFGIKVVSSPRHADILLFTGAVTRAMRMPALRAYESAPDHKICVSYGACGVGGGIFHDLYSVWGGSDTIVPIDVWIPGCPPTPAATIHGFAVALGLLQQKIHAVDYRDPTGVTMQPLWPQIPPSQRIAIEREARRLAGYRQGREICDRLLRHLSDDPTGNRVNTWLRDADDPRLNSIVQQLFRVLRGLHDEGGS

Soluble on expression in E. coli, not soluble:
MGDHYGFSLTTFSPSGKLMQIEYALNAVKNGQPSVGLRAKDGVVLATENVGSVLTDDQPKVEQISKHIGCVYSGMGPDFRILVKKARKIAMEYEMMYGEEMPTIQLVTDIAAVMQEYTQSGGVRPFGASLLIAGWDKNPGRPLLFQCDPSGAYFAWKATALGKNDVNAKTFLEKRFSEALELDDGIHTALLTLRESFDVGMNENNVEVAVCNSTGFHRLTKQQVHDHLGTL
MGDIDYQAIEFAYTKCADQQRDTPARHCVIVVGAGPVGLTTALDLARQGLRVVVLDDDYRLSTGSRAICFAKRTLEIWDRLGVGQRMVDKGVSWNVGKVFFRDQEVWRFDLLPEPGHRRPAFINLQQYYAEGYLHELASAQPGIELRWKSKVVGVAQQADGVQVTVDTPDGAYALHVDWLVACDGARSPVRKLLDLETHGRVFKDRFLIADVKMAADYPAERWFWFDPPFHPNQSVLLHMQPDNVWRIDFQLGWNADPVEAVKPENVLPRIRALLGPDADFELEWVSVYTFACERMDHFRHGRVVFAGDSAHRVSPFGARGANSGVQDAENLAWKLKLVLAGHAPESLIDSYAAEREYAADENILNSSRSTDFITPKSEVSRTFRNAVLNLARQHPFARTLVNSGRLSVPAAYADSPLNTPDSDPYAGTMRPGAVALDAPVRADAQPGWWLSQLDGGFALALFCGAETPRADMLDALRALQQDEVPVQPILVCDAGAAPAAAPAGVRVVEDSEGWLARRYDARPGTCYLIRPDQHIAARFRAFDAQAVRRALARAIGRALEHHHHHH
MGDNGTGIECIGLPPGFSIDYYAEGVEGARSMALSPEGTLFAGSRGAGKLYAMTDRNGDNKADDVLVIAEGLDMPNGVAFRNGSLYVAEISRVLRYDDIEARLENPPDPAVVRGDFPADRSHGWKYIKFGPDGKLYVPVGMPCNVCNLEEEEERYGTMMRMEPDGSQPEIFARGIRNTVGFAWNPETGELWFTDNGRDWLGDDLPPDELNRAPVPGMHFGFPYCHGKDTPDPEYGEFRNCSEFTAPEVELGPHVAALGMTFYNGSMFPEEYRNQIFIAEHGSWNRKIPIGYRVSLVRLENGTPVSYEPFADGWLQGLASWGRPVDVLVMPDGALLVSDDKNNAIYRISLEHHHHHH
MGEKIMKSMEIRSSEITTSGAGTLTGYVVRWDKLSELLWGEFYEKFQRGAFTEWLAAGNDVRGLYEHDHSMLLGRTRSGTLKLEEDETGLRFELTPPDTSTGRDVIELVKRGDISGMSFGFRSRKDVWDTTTDPCVRTVLVAELYEITVTSVPAYPDSGVELARRSLYEQHPEKMPRADNRRWWADLAGV
MGENYKFFNHKDCEFFPCHKTNKPEEFNCLFCYCPLYALGENCGGNFKYTDKGIKDCSSCILPHKKDNYNYIMSKFQDLVKITSKKLEHHHHHH
MGEPVIEAQISAGFDSDSGFRHAFSRLAGQPPSNLRGRELLKVDWLQTPIGVMLAVADLEHHHHHH
MGETAGREHGTVTRSAEYIGSFPVDDSCLDDQIQQLHTQLKSLKNCKSKRTVSLRFSVKGVKVYDEDETTLLMAHAMCRVSLSTARPSDAQFAFASHNPGNSDAQLYCHLFRARHARAAQFLNLLLCRCFQLYFLEKHPEEAQEECSGKKPSRAPSLLNQGFPLSVSALVSFRRAPTQGLLPGAKLFSQQSTEQVSSPEEGPTSSPTIVRKMAIRTKELRSGAYRSFTFTPLKQRHLQDKLSAPQGGMSVHRTLSRLKEFLRKGTSHCKGMHVSSSQFGRNRRSTGSSCVVLGWRV
MGETTAEAKKDPSSIRVVALDWRYEEILHALGITPVGIVEIGKSKEPQTLKGELEGVTSVGQAKQPNLEVIQSLEPDLILASPTRQAAIMDQLKEIAPTHAYGDTSYTEVLDAMDDIATKVGAEDKAKEVRTRIESKIAQAKNKVEPGTRTALIGWSKNTLYTWVKDSFAGSLLTAAGYEYGYDGEKSAIESKTDVAELTGDKLPEMKLDVMYLYNDIEGFRSSPYADVVSNIVDVEQDTWSRSRGPLAAEAMLDQIINSLEHHHHHH
MGFDSPRGRGGGGFRGGRGGGSGFTPRGGGGGFRGGDRGRSPGGFRGGDRGRSSSGFRGGDRGRSPGGFRGDREGGFSPRGRGGGFRGGDRGGFRGGDRGGSPWRGGDRGNFRGGDRGGSPWRGGDRGVANRGRGDFSGGSRGGNKFSPRGGGRGGFTPRGRGGNDFSPRGGRGNFQSRGGGSRVGFSDKRKQYDSDGDDDEEEEVPKKKLATGTPFAKQTKPVEDDSGEDEEDEEESDEEPQPPKKTAKSAIATAAEDSDDDEEDDDEEEEESDDDAPQVKKSVAVEEDEEDEEDEEEIEMDEEDEEEEEDEEETEPVAKTPAVKSSLKSVDSTKGKQVNLSKVATPTTVDKKAPATPHPAKTSKNAAGDVPKLNFDDDSDEEDEEDEEVEEEDEEEEEEEEDVPAKKAPVLKQSLSQIAQAIEEDSDDEDEDEEEEEDEEDEEEEEDTTNVPLIKSKADLLKQIAANRAAASAAQDSDEDEDEEDEEDVEEEDEEEEEEEDIPAVKPKVTEKQGGVKRKLDEPTVASKQVKSDGKSIISEEERRRQDRDSRSLFIKEIAKKAKDAEITGLVTGLDSFRRKKNSNFGWLVFNTVADCKKAHDVLSKSKIQGKALYVDFCLSESKAPKEHGVRPINPLQLFINALPGTCNNTDLKNIFRSSTDIKILHASGQPNSKKRAFITFGTVEDAQAAFAKSNGLKVNNHLVDVFYARHQETKVDVKPKKAATPAVQKKIVPKVAADSSGDDSEEVASSDEGIQEVEEEQPKQKKLVKKVEPKTIPRVQQKKPQFKKTGFKGKK
MGFPKEGEKVQIHSYKHNGSIHRMWEETTILKGTQSLVIGANDRTVVTESDGRTWITREPAICYFHANYWFNVIGMLREDGVYYYCNLSSPFAYDPEALKYIDYDLDIKVYPDMTYTLLDEDEYEKHSEIMQYPPVIDTILKRNVAHLTQWIHQRKGPFAPDFVDMWYERYLMYRN
MGGSHHHHHHGMASALETNYLKRCFGNCLAQALAEVAKVRPSDPIEYLAHWLYHYRKTAKAKEENREKKIHLQEEYDSSLKEMEMTEMLKQEEYQIQQNCEKCHKELTSETVSTKKTIFMQEDTNPLEKEALKQEFLPGTSSLIPGMPQQVPPSESAGQIDQNFKMPQEINYKEAFQHEVAHEMPPGSKSPF
MGGSHHHHHHGMASALKAHMVRQHSRRQDLLPQLEAPSSLTPSSELSSPGQSELTNMDLAALFSDTPANASGSAGGSDEALNSGILTIDVTSVSSSLGGNLPANNSSLGPMEPLVLVAHSDIPPSLDSPLVLGTAATVLQQGSFSVDDVQTVSAGALGCLVALPMKNLSDDPLALTSNSNLAAHITTPTSSSTPRENASVPELLAPIKVEPDSPSRPGAVGQQEGSHGLPQSTLPSPAEQHGAQDTELSAGTGNFYLESGGSARTDYRAIQLAKEKKQRGAGSNAGASQSTQRKIKEGKMSPPHFHASQNSWLCGSLVVPSGGRPGPAPAAGVQCGAQGVQVQLVQDDPSGEGVLPSARGPATFLPFLTVDLPVYVLQEVLPSSGGPAGPEATQFPGSTINLQDLQ
